Measured values: patent CN113512111A (BEIJING MABWORKS BIOTECH CO LTD, dated 2021)

Key:
FcγRIIIa(158V) = FcγRIIIa(158V) (UniProt P08637 17-208)
[1] = target: T1, 埃博拉病毒表面抗原GP蛋白 (soluble GP used as the analyte in BIAcore) (埃博拉病毒 (Ebola virus), UniProt Q05320 33-650)
T1 sequence: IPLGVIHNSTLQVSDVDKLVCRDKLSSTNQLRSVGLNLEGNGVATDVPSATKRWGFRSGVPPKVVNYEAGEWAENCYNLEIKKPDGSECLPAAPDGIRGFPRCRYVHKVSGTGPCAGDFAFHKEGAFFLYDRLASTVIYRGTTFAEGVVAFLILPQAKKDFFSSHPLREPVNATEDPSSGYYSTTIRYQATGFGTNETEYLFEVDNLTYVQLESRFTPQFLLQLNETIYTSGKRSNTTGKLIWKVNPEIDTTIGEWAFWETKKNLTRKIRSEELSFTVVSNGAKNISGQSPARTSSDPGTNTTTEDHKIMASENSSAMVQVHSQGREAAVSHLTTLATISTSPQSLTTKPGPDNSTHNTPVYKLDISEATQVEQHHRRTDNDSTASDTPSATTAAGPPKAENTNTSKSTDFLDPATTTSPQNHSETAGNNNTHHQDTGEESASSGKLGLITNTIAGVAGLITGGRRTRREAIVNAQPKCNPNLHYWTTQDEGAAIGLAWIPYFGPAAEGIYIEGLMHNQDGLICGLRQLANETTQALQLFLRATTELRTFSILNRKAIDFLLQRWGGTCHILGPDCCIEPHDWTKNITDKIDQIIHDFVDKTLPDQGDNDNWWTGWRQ

C1q蛋白 = C1q蛋白 (UniProt P02745 23-245; P02746 28-253; P02747 29-245)
C1q蛋白, sequence (P02745 23-245 limits assumed, chain 1 of 3): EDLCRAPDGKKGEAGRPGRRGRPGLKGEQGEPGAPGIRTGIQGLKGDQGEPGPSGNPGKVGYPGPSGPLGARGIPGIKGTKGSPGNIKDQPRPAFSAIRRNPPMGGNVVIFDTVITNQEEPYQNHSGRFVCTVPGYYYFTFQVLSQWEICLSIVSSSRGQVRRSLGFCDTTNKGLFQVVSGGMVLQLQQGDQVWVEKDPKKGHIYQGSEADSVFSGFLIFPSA
C1q蛋白, sequence (P02746 28-253 limits assumed, chain 2 of 3): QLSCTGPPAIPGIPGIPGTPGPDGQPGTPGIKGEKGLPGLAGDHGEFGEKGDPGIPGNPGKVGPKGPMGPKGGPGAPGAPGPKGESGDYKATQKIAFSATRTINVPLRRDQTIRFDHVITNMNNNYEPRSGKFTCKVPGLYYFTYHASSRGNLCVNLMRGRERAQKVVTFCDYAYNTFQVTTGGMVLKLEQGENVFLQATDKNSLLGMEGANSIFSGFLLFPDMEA
C1q蛋白, sequence (P02747 29-245 limits assumed, chain 3 of 3): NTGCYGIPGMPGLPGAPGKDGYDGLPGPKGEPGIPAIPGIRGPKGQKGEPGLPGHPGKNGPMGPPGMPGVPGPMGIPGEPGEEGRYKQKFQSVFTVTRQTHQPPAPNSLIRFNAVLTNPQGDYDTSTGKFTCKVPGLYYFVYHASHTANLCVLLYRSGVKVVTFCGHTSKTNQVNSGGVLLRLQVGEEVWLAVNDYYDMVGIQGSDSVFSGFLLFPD

[2] = target: T2, 埃博拉GP蛋白 on 埃博拉假病毒(扎伊尔型) (HIV-backbone luciferase pseudovirus) (埃博拉病毒(扎伊尔型) (Zaire ebolavirus), UniProt Q05320 33-676); test: cell-based or functional assay
T2 sequence: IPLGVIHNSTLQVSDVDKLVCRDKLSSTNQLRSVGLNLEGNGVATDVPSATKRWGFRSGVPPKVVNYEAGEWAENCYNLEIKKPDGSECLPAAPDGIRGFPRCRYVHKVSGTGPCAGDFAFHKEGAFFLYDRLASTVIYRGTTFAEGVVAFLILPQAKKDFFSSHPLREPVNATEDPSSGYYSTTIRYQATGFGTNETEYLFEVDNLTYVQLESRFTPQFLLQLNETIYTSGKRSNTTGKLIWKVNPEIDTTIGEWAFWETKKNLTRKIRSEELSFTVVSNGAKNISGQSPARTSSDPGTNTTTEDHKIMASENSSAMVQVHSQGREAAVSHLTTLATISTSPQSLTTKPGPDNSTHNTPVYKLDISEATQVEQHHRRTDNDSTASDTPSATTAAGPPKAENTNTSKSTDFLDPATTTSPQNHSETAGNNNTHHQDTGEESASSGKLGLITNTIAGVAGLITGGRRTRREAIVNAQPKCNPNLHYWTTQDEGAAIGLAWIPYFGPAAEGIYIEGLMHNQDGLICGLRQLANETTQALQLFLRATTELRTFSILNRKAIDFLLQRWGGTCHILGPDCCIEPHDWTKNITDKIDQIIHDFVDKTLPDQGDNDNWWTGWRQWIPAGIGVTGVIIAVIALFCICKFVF

FcγRIIIa(158V), sequence (P08637 17-208 F176V limits assumed): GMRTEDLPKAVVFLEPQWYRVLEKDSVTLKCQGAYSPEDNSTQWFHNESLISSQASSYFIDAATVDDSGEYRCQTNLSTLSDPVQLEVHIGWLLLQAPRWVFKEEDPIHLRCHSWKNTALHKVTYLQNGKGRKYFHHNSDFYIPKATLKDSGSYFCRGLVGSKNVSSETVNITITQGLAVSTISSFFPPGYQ

B1: 抗体MIL77-1 (anti-Ebola virus glycoprotein monoclonal antibody, afucosylated, made in CHOK1-AF cells) (antibody)
heavy: not shown
light: DIQMTQSPASLSVSVGETVSITCRASENIYSSLAWYQQKQGKSPQLLVYSATILADGVPSRFSGSGSGTQYSLKINSLQSEDFGTYYCQHFWGTPYTFGGGTKLEIKRTVAAPSVFIFPPSDEQLKSGTASVVCLLNNFYPREAKVQWKVDNALQSGNSQESVTEQDSKDSTYSLSSTLTLSKADYEKHKVYACEVTHQGLSSPVTKSFNRGEC
FcγRIIIa(158V)
  EC50: 0.062 to 0.064 µg/mL
[1]
  Kd: 50.6 to 53.8 nM
C1q蛋白
  EC50: 0.818 to 0.96 µg/mL
[2]
  体外假病毒感染细胞中和活性 半数抑制浓度(IC50), HEK293细胞体系, batch M20141202: 4.59 µg/mL
  体外假病毒感染细胞中和活性 半数抑制浓度(IC50), Huh7细胞体系, luciferase reporter: 0.799 µg/mL

B2: 抗体MIL77-2 (anti-Ebola virus glycoprotein monoclonal antibody, afucosylated, made in CHOK1-AF cells) (antibody)
heavy: not shown
light: DIQMTQSPASLSASVGETVTITCRASENIYSYLAWYQQKQGKSPQLLVYNAKTLIEGVPSRFSGSGSGTQFSLKINSLQPEDFGSYFCQHHFGTPFTFGSGTELEIKRTVAAPSVFIFPPSDEQLKSGTASVVCLLNNFYPREAKVQWKVDNALQSGNSQESVTEQDSKDSTYSLSSTLTLSKADYEKHKVYACEVTHQGLSSPVTKSFNRGEC
FcγRIIIa(158V)
  EC50: 0.054 to 0.073 µg/mL
[1]
  Kd: 31.9 to 36.2 nM
C1q蛋白
  EC50: 0.772 to 0.968 µg/mL
[2]
  体外假病毒感染细胞中和活性 半数抑制浓度(IC50), HEK293细胞体系, batch M20141202: 0.058 µg/mL
  体外假病毒感染细胞中和活性 半数抑制浓度(IC50), HEK293细胞体系, batch M20141203: 0.023 µg/mL
  体外假病毒感染细胞中和活性 半数抑制浓度(IC50), HEK293细胞体系, batch M20150101: 0.017 µg/mL
  体外假病毒感染细胞中和活性 半数抑制浓度(IC50), Huh7细胞体系, luciferase reporter: 0.359 µg/mL
